Laboratory results from the supplement of paper PMC12764529.
± gives the half width of the 95% confidence interval.

Tests used:
[1] = folding stability dG unfold from chymotrypsin proteolysis; higher = more stable
Procedure, shortened: (§1)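 Sequencing followed digestion of designed mini-proteins with trypsin and chymotrypsin, each at 11 concentrations in threefold dilutions together with a no-protease condition. The mini-proteins were under 80 residues, had no cysteine, sat in a PA-tagged cDNA display construct, and were kept only if AlphaFold2 dimer inter-PAE was above 15. From the counts, Bayesian fitting gave K50, and unfolding free energy was derived against a sequence-predicted unfolded-state K50 and a shared folded-state K50, per protease or combined.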

[2] = folding stability dG unfold (combined trypsin and chymotrypsin); higher = more stable
Procedure, shortened: as §1

[3] = folding stability dG unfold from trypsin proteolysis; higher = more stable
Procedure, shortened: as §1

## SASNKPRTIEVPIMIPPDDLKEHSPEEFIDWIANELGLPPGKDIKIDVDIEPFEHDGRPYYIIPARIQVSAG [r14_334_TrROS]
[1]
  folding stability dG unfold: -0.294 ± 0.32 kcal/mol
[2]
  folding stability dG unfold: -0.231 ± 0.22 kcal/mol
[3]
  folding stability dG unfold: -0.362 ± 0.2 kcal/mol

## SAGGSAGGSKKTVLVRITVTLPNGEKREIELEVEVDSVEDLKELLKKLPLPPGMKVTIEVVPASAGGSAGGS [r20_162_TrROS_Hall]
[1]
  folding stability dG unfold: 3.4 ± 0.2 kcal/mol
[2]
  folding stability dG unfold: 4.16 ± 0.31 kcal/mol
[3]
  folding stability dG unfold: 4.48 ± 0.31 kcal/mol

## SAGGSAGGSALPLPPDQRLYVFRDPEGDLYLVRFEDGSEVRTSLKAEDLEKLGVPVVDIGDLSAGGSAGGSA [r18_125_TrMRF]
[1]
  folding stability dG unfold: 1.49 ± 0.037 kcal/mol
[2]
  folding stability dG unfold: 1.66 ± 0.032 kcal/mol
[3]
  folding stability dG unfold: 1.73 ± 0.035 kcal/mol

## SAGGKKEKIVEIKLLDMSYDPENKTVTFKFLVKLENGEEKVIELKISAEDFEKMSLEDILKAVKDFFESAGG [r13_512_TrMRF]
[1]
  folding stability dG unfold: 4.83 ± 0.09 kcal/mol
[2]
  folding stability dG unfold: 4.72 ± 0.15 kcal/mol
[3]
  folding stability dG unfold: 3.74 ± 0.16 kcal/mol

## SAGGSAGGSAPDIKILEPLEVDPDNGMITLKIELPGDGKVHEAIFFNPDGEPMMKFTIEIPKSAGGSAGGSA [r18_296_TrROS]
[1]
  folding stability dG unfold: 0.358 ± 0.31 kcal/mol
[2]
  folding stability dG unfold: 0.299 ± 0.3 kcal/mol
[3]
  folding stability dG unfold: 0.219 ± 0.094 kcal/mol

## SAGGSAGGSAGEEKEYRIVVPFDSDDPEAFVRAVFDGIPPDVPIKAIDFNPELGYGVVVASAGGSAGGSAGG [r11_698_TrMRF]
[1]
  folding stability dG unfold: 1.07 ± 0.072 kcal/mol
[2]
  folding stability dG unfold: 0.892 ± 0.11 kcal/mol
[3]
  folding stability dG unfold: 0.364 ± 0.091 kcal/mol

## SAGGMPVRVLITYESGEIPVTIPVDPNKVVEAEVELEDKTVKITVDPKAKTIKVDAPPSFKFEVLDPSAGGS [r16_761_JUSTAS]
[1]
  folding stability dG unfold: 0.257 ± 0.084 kcal/mol
[2]
  folding stability dG unfold: 0.277 ± 0.18 kcal/mol
[3]
  folding stability dG unfold: 0.35 ± 0.13 kcal/mol

## SAGGSASIKVTYRFPPDTTVEQAIEDLIAYLEAQTNVKISIPSYTVEREGDYLLVTADILIEPLPESAGGSA [r15_105_TrMRF]
[1]
  folding stability dG unfold: 4.61 ± 0.056 kcal/mol
[2]
  folding stability dG unfold: 4.59 ± 0.073 kcal/mol
[3]
  folding stability dG unfold: 4.18 ± 0.086 kcal/mol

## SAGGSAGGSAGGSGSSVLVKTTTTLSVAPGATITLPDGTVYTVPAGVPVTVTTWVLVETSAGGSAGGSAGGS [r4_232_JUSTAS]
[1]
  folding stability dG unfold: 4.05 ± 0.092 kcal/mol
[2]
  folding stability dG unfold: 3.38 ± 0.13 kcal/mol
[3]
  folding stability dG unfold: 2.31 ± 0.14 kcal/mol

## SAGGSAGGSAGGKKVTITLKDANGKELKIEVKEGEEVTIEVGGKKYKLTVKDGKIELKPVSAGGSAGGSAGG [r7_510_TrROS_Hall]
[1]
  folding stability dG unfold: 4.67 ± 0.23 kcal/mol
[2]
  folding stability dG unfold: 4.61 ± 0.44 kcal/mol
[3]
  folding stability dG unfold: 4.03 ± 0.28 kcal/mol

## RVEVLENGEVIAVFPAEFLADIPPDDPLLLTLTLTLPDGYRVYVTFYNLPDGTVVAIARVEPVEVGPELAAS [r1_394_TrMRF]
[1]
  folding stability dG unfold: 4.46 ± 0.066 kcal/mol
[2]
  folding stability dG unfold: 4.22 ± 0.12 kcal/mol
[3]
  folding stability dG unfold: 3.32 ± 0.14 kcal/mol

## SAPPKTRTREIEIRFDDYYVRIKITWTKDGNLKLDIEFQGPNPVMREQIKDFLEELNPDFEITDIEVYRSAG [r14_611_TrROS]
[1]
  folding stability dG unfold: 2.67 ± 0.057 kcal/mol
[2]
  folding stability dG unfold: 2.38 ± 0.3 kcal/mol
[3]
  folding stability dG unfold: 2.13 ± 0.14 kcal/mol

## SAGGSAGGSAGGGLSSAPPPVVALSSSVSLVPSPSGGILTVTTTTDAGSGTTTTTTTALSAGGSAGGSAGGS [r10_1137_JUSTAS]
[1]
  folding stability dG unfold: 0.758 ± 0.025 kcal/mol
[2]
  folding stability dG unfold: 1.71 ± 0.042 kcal/mol
[3]
  folding stability dG unfold: 2.44 ± 0.068 kcal/mol

## SAGGSAGGSMPPVVLEVKDPESGKVTTLFFFPPTGEALVVPPDGSVFYEPFTSLDELVERLAGSAGGSAGGS [r12_511_TrMRF]
[1]
  folding stability dG unfold: 1.71 ± 0.051 kcal/mol
[2]
  folding stability dG unfold: 1.57 ± 0.091 kcal/mol
[3]
  folding stability dG unfold: 1.4 ± 0.055 kcal/mol

## SAGGMPIKELTAEEIAALLKEKLGVDVEIEEVKVTVERDENGNYVLRIEVKFKETNETITLEIVLPKSAGGS [r16_42_TrROS_Hall]
[1]
  folding stability dG unfold: 4.2 ± 0.16 kcal/mol
[2]
  folding stability dG unfold: 3.86 ± 0.14 kcal/mol
[3]
  folding stability dG unfold: 2.94 ± 0.093 kcal/mol

## SAGKKKKIKIKVKIIVNGKLKEIEIEVDENKTLEEILAEIKKKLPKNAIIIITNENGEKKIIILPKEELSAG [r5_77_TrROS_Hall]
[1]
  folding stability dG unfold: 1.58 ± 0.1 kcal/mol
[2]
  folding stability dG unfold: 1.89 ± 0.45 kcal/mol
[3]
  folding stability dG unfold: 2.49 ± 0.24 kcal/mol

## SAGGSAGGSAGMTLTLEFTDPEVAIPLAEKLAEELGLELVEIEEREEGERPVYLVTLKVPSAGGSAGGSAGG [r11_232_JUSTAS]
[1]
  folding stability dG unfold: 1.52 ± 0.021 kcal/mol
[2]
  folding stability dG unfold: 1.61 ± 0.043 kcal/mol
[3]
  folding stability dG unfold: 1.63 ± 0.056 kcal/mol

## SAGGVEEAREALEEAGFEIVDVDEETGTVTVRNEETEETITVRVEAPAPPPVEVEEEVEVEEEEEEESAGGS [r16_197_TrROS_Hall]
[1]
  folding stability dG unfold: 1.48 ± 0.12 kcal/mol
[2]
  folding stability dG unfold: 1.34 ± 0.096 kcal/mol
[3]
  folding stability dG unfold: 1.14 ± 0.089 kcal/mol

## SAGGSAGGSSVSVGVPSSYASVEVTVLKEEPGKGLVTVKVTTTVPGTGEVLTETVTIPRSELLSAGGSAGGS [r12_964_JUSTAS]
[1]
  folding stability dG unfold: 0.517 ± 0.043 kcal/mol
[2]
  folding stability dG unfold: 0.828 ± 0.046 kcal/mol
[3]
  folding stability dG unfold: 1.01 ± 0.034 kcal/mol

## SAGGSAGGEEAREAIEQELRARGINVTEIKVEEKKLTPDKTVVTFTVTARLPDSELTSTFTVVDSAGGSAGG [r6_533_JUSTAS]
[1]
  folding stability dG unfold: -0.92 ± 0.81 kcal/mol
[2]
  folding stability dG unfold: -0.173 ± 0.13 kcal/mol
[3]
  folding stability dG unfold: 0.141 ± 0.19 kcal/mol

## SAGGSAGGSVEDVVKKENVEKAEVKPEPNPPVTLTKITSKNPNSNTTLTGTLVVVDPKNGLLLSAGGSAGGS [r12_133_JUSTAS]
[1]
  folding stability dG unfold: 0.157 ± 0.21 kcal/mol
[2]
  folding stability dG unfold: 0.0723 ± 0.11 kcal/mol
[3]
  folding stability dG unfold: -0.344 ± 0.12 kcal/mol

## SAGGSAGGSAMTVTITHDVPPDVSVTVTVTSNNKKIPVSTPSRAASATIPSSEVSSLEIVPSSAGGSAGGSA [r18_170_JUSTAS]
[1]
  folding stability dG unfold: 0.792 ± 0.043 kcal/mol
[2]
  folding stability dG unfold: 0.496 ± 0.12 kcal/mol
[3]
  folding stability dG unfold: -0.362 ± 0.29 kcal/mol

## SAGPITITYDEETGTLTITATVAPGEEVTFKLTFVDEETGVVVTEVEETVTVKEGDTVTITVKVEKLPPSAG [r5_737_TrROS_Hall]
[1]
  folding stability dG unfold: 3.69 ± 0.13 kcal/mol
[2]
  folding stability dG unfold: 3.34 ± 0.27 kcal/mol
[3]
  folding stability dG unfold: 2.19 ± 0.14 kcal/mol

## SAKKKKVKKKEIKVTLKLKLPGAKIKSVKVEKKGDKLVITVEIELENGEKLKLTAVFDKDGKIVKIELESAG [r14_719_TrROS_Hall]
[1]
  folding stability dG unfold: 1.96 ± 0.061 kcal/mol
[2]
  folding stability dG unfold: 1.74 ± 0.38 kcal/mol
[3]
  folding stability dG unfold: 1.11 ± 0.11 kcal/mol

## SAGGSAGGSAGGTGPPPVKTLVIVANWTEEQAEALKKAFPDQEVTVYEIPGLPKTVAVVSSAGGSAGGSAGG [r17_254_TrMRF]
[1]
  folding stability dG unfold: 1.42 ± 0.086 kcal/mol
[2]
  folding stability dG unfold: 1.16 ± 0.17 kcal/mol
[3]
  folding stability dG unfold: 0.833 ± 0.03 kcal/mol

## SAGGKTIVIKVKTKEQAKALAEELAKKLKDAGYTVTVTYDEETGVVTVTVTVKVNGKTKKITLVLELPSAGG [r13_641_TrROS_Hall]
[1]
  folding stability dG unfold: 3.05 ± 0.043 kcal/mol
[2]
  folding stability dG unfold: 3.26 ± 0.038 kcal/mol
[3]
  folding stability dG unfold: 3.51 ± 0.074 kcal/mol

## SAGGSPEVKVLLFYDPATGERVVVVVTYDPATGEKKVLVFVESRPELVELVKKLLEDLGYEVEVVPSAGGSA [r2_30_TrMRF]
[1]
  folding stability dG unfold: 3.82 ± 0.16 kcal/mol
[2]
  folding stability dG unfold: 3.63 ± 0.11 kcal/mol
[3]
  folding stability dG unfold: 3.39 ± 0.19 kcal/mol

## SAGGSAGGSITPEEAKALAEEIKKALGVPDVEVLEIRVERDPERDFYTADIVIRLPDGSVIRASAGGSAGGS [r12_508_TrMRF]
[1]
  folding stability dG unfold: 1.04 ± 0.064 kcal/mol
[2]
  folding stability dG unfold: 1.7 ± 0.11 kcal/mol
[3]
  folding stability dG unfold: 2.05 ± 0.051 kcal/mol

## SAGGSAGGSAGGKIKILKKNKTKEEIKKELAEKYNVKKIEIKPIKGNTYLVEIEVEPEESAGGSAGGSAGGS [r10_1219_TrMRF]
[1]
  folding stability dG unfold: 0.634 ± 0.22 kcal/mol
[2]
  folding stability dG unfold: 0.292 ± 0.25 kcal/mol
[3]
  folding stability dG unfold: -0.364 ± 0.24 kcal/mol

## SAGGSAKVKYKKDKNGNTYPVVEEKKKIKLTVKIKIFDKNGKLVKEITFPANMTLEEIEKEIKKLLSAGGSA [r15_309_TrROS_Hall]
[1]
  folding stability dG unfold: 1.79 ± 0.11 kcal/mol
[2]
  folding stability dG unfold: 1.61 ± 0.18 kcal/mol
[3]
  folding stability dG unfold: 1.16 ± 0.11 kcal/mol

## SAGGSAGGSAKPKLHIHILTAGPFEELAELLEELAKRIFPPELEIDIHIHYIPKELLHPELGSAGGSAGGSA [r18_498_TrMRF]
[1]
  folding stability dG unfold: 2.51 ± 0.041 kcal/mol
[2]
  folding stability dG unfold: 2.59 ± 0.077 kcal/mol
[3]
  folding stability dG unfold: 2.74 ± 0.15 kcal/mol
